One block for each binder: values may come before it.
What was measured:
[1] = target: T1, Siz2∆CT (Saccharomyces cerevisiae? (budding …, UniProt Q12216 1-420)); assay: fluorescence polarization; FP: 20 mM HEPES pH 7.5, 125 mM NaCl, 0.1% Tween-20, 23°C, 50 nM DNA (RPA/SUMO-RPA on ss32: 1 nM DNA, plus 5 mM MgCl2, 1 mM DTT); EMSA: same buffer with 5 mM MgCl2 (Fig 8 also 1 mM DTT), 23°C, 6% gel in 0.5x TBE; details: protein: recombinant; tags: His6-thioredoxin removed with TEV; label: 5' 6-FAM on strand 1; blunt
T1 sequence: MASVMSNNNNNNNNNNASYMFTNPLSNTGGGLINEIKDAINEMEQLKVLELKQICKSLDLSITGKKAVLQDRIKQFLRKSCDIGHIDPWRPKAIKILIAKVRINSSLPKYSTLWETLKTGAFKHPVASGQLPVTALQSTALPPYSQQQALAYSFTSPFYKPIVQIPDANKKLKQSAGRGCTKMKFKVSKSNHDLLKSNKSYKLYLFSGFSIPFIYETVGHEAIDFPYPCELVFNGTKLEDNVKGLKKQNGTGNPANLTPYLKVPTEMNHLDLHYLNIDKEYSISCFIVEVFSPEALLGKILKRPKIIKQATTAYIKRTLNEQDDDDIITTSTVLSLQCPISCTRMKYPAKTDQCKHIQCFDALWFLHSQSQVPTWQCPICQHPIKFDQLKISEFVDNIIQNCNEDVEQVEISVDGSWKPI

[2] = target: T2, replication protein A (RPA): Rfa1(1–621), His6-Rfa2(1–273), Rfa3(1–122) (budding yeast, UniProt P22336 1-621; P26754 1-273; P26755 1-122); assay: native gel or EMSA; 10 nM 6-FAM-ds20ss32 DNA pre-bound to RPA, RPA∆WH or SUMO-RPA, serially diluted full-length Siz2; 25 min at 23°C; 20 mM HEPES pH 7.5, 125 mM NaCl, 0.1% Tween-20, 5 mM MgCl2; native 6% polyacrylamide gel in 0.5x TBE; apparent Kd; details: both partners purified
T2 construct: Rfa1 subunit of RPA, budding yeast, residues 1-621, tagless; Rfa2 subunit of RPA, budding yeast, residues 1-273, noncleavable N-terminal hexahistidine tag; Rfa3 subunit of RPA, budding yeast, residues 1-122, tagless; also called wild-type RPA; source: E. coli BL21 (DE3) CodonPlus RIL, co-expressed, purified (Ni-NTA, HiTrap Heparin, Superdex200); not shown: His6, N-terminal, kept; copies: + +
T2 sequence (P22336 whole entry, chain 1 of 3, the tested form may be a part): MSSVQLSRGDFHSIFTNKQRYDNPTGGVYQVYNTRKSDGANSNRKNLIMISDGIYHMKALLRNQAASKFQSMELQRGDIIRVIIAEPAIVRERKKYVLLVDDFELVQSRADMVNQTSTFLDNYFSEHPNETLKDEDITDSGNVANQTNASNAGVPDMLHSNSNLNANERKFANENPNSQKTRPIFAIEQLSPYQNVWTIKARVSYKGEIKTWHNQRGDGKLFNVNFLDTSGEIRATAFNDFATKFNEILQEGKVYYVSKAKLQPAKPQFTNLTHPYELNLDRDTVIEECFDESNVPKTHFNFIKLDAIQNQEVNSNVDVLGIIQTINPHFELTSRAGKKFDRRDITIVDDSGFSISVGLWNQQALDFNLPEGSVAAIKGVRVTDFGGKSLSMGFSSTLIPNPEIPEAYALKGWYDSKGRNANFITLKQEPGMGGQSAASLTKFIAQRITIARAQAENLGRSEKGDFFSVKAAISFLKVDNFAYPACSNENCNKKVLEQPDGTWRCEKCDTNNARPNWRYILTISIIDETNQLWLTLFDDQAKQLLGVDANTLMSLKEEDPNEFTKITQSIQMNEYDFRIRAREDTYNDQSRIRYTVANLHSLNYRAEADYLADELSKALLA
T2 sequence (P26754 whole entry, chain 2 of 3, the tested form may be a part): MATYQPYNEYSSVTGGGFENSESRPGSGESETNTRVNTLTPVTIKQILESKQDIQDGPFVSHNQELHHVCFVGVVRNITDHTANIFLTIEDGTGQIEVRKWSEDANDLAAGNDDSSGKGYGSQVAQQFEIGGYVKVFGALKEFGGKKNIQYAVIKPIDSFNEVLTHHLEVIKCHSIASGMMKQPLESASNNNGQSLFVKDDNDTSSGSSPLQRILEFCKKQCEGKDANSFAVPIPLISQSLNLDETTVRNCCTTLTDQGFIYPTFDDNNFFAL
T2 sequence (P26755 whole entry, chain 3 of 3, the tested form may be a part): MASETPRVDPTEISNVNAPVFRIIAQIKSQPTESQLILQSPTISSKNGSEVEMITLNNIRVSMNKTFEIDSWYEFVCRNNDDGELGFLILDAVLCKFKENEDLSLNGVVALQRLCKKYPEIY

[3] = target: T3, RPA reconstituted with ∆WH-Rfa2: Rfa1(1–621), His6-Rfa2(1–205), Rfa3(1–122) (budding yeast, UniProt P22336 1-621; P26754 1-205; P26755 1-122); assay: as above; details: both partners purified
T3 construct: Rfa1 subunit of RPA, budding yeast, residues 1-621, tagless; Rfa2 subunit of RPA, budding yeast, residues 1-205 (winged helix domain removed), noncleavable N-terminal hexahistidine tag; Rfa3 subunit of RPA, budding yeast, residues 1-122, tagless; The purification of this variant is not described on its own; also called RPA∆WH; RPA lacking the WH domain of Rfa2; source: E. coli BL21 (DE3) …
T3 sequence (P22336 whole entry, chain 1 of 3, the tested form may be a part): as the sequence (P22336 whole entry, chain 1 of 3, the tested form may be a part) above
T3 sequence (P26754 1-205, chain 2 of 3): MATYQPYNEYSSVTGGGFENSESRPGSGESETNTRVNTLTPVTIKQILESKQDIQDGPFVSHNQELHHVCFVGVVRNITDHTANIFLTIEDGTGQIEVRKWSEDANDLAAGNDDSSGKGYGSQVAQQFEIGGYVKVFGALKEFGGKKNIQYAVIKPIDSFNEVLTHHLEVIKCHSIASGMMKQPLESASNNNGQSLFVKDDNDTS
T3 sequence (P26755 whole entry, chain 3 of 3, the tested form may be a part): as the sequence (P26755 whole entry, chain 3 of 3, the tested form may be a part) above

[4] = target: RPA (Rfa1/Rfa2/Rfa3) (Saccharomyces cerevisiae? (budding …, UniProt P22336;P26754;P26755 1-621;1-273;1-122)); assay: fluorescence polarization; 5 mM MgCl2; FP: 20 mM HEPES pH 7.5, 125 mM NaCl, 0.1% Tween-20, 23°C, 50 nM DNA (RPA/SUMO-RPA on ss32: 1 nM DNA, plus 5 mM MgCl2, 1 mM DTT); EMSA: same buffer with 5 mM MgCl2 (Fig 8 also 1 mM DTT), 23°C, 6% gel in 0.5x TBE; details: protein: recombinant; tags: noncleavable N-terminal His6 on Rfa2; copies: 1;1;1; label: 5' 6-FAM; single strand
Sequence of RPA (Rfa1/Rfa2/Rfa3) (Saccharomyces cerevisiae? (P22336 whole entry, chain 1 of 3): as the sequence (P22336 whole entry, chain 1 of 3, the tested form may be a part) above
Sequence of RPA (Rfa1/Rfa2/Rfa3) (Saccharomyces cerevisiae? (P26754 whole entry, chain 2 of 3): as the sequence (P26754 whole entry, chain 2 of 3, the tested form may be a part) above
Sequence of RPA (Rfa1/Rfa2/Rfa3) (Saccharomyces cerevisiae? (P26755 whole entry, chain 3 of 3): as the sequence (P26755 whole entry, chain 3 of 3, the tested form may be a part) above

[5] = target: T2, replication protein A (RPA): …; assay: fluorescence polarisation; 50 nM 5'-fluorescein-labelled DNA in complex with RPA or RPA∆WH, serially diluted Siz2∆CT; 23°C; 20 mM HEPES pH 7.5, 125 mM NaCl, 0.1% Tween-20; apparent Kd, single-site model with ligand depletion; details: both partners purified
[6] = target: T3, RPA reconstituted with ∆WH-Rfa2: …; assay: as above; details: both partners purified

binding result [2]: binds
binding result [3]: binds
B2: Siz2(1–726) (enzyme, budding yeast, UniProt Q12216 1-726, looked up)
chain: MASVMSNNNNNNNNNNASYMFTNPLSNTGGGLINEIKDAINEMEQLKVLELKQICKSLDLSITGKKAVLQDRIKQFLRKSCDIGHIDPWRPKAIKILIAKVRINSSLPKYSTLWETLKTGAFKHPVASGQLPVTALQSTALPPYSQQQALAYSFTSPFYKPIVQIPDANKKLKQSAGRGCTKMKFKVSKSNHDLLKSNKSYKLYLFSGFSIPFIYETVGHEAIDFPYPCELVFNGTKLEDNVKGLKKQNGTGNPANLTPYLKVPTEMNHLDLHYLNIDKEYSISCFIVEVFSPEALLGKILKRPKIIKQATTAYIKRTLNEQDDDDIITTSTVLSLQCPISCTRMKYPAKTDQCKHIQCFDALWFLHSQSQVPTWQCPICQHPIKFDQLKISEFVDNIIQNCNEDVEQVEISVDGSWKPIHNSSAVITDTVNQNHSVKNENQGTVKQEQDYDSRNAFDTNLRNGSNHNEPEIISLDSSDDEAFIPASKSFPTHVNPRNDQLRADIFPSESEGSSDYNPNHTSTPKGSPTMDQDNYQDAFQMRSFLNQGATTNINDTPTNNSSINSFVTATNGDSRIFYNRGPSTPLLPAVLQNLTNQTEAQRNPYGPNYNTTAQDRNLLGIEGDLPPIPPVDPNSEAETELPTRTTSAAHLPPYIHVSTSGHGDDGKIRKRRHSNVSIYIPKNPYATLMKRRPQANHAIMNKTLAQTNDFNTSAQDNSEVVDLTSD
notes: SUMO E3 ligase Siz2, budding yeast, full length; cloned as Siz2(1–726), called Siz2(1–727) in the purification paragraph; also called full-length Siz2; Siz2(1–727); source: E. coli BL21 (DE3) CodonPlus RIL, purified (Ni-NTA, HiTrap Heparin, Ulp1 cleavage, Ni-NTA, Superdex200)

binding result [5]: binds
binding result [6]: binds
B3: Siz2(1–420) (domain or fragment, budding yeast, UniProt Q12216 1-420, looked up)
chain: T1 sequence
notes: SUMO E3 ligase Siz2, budding yeast, residues 1-420 (SAP, PINIT and SP-RING domains; C-terminal region removed); also called Siz2∆CT; source: E. coli BL21 (DE3) CodonPlus RIL, purified (Ni-NTA, TEV cleavage, Superdex75); not shown: His6, N-terminal, cleaved; thioredoxin, N-terminal, cleaved

The remaining lines, values behind:

B1: 6-FAM-ds20 (dsDNA)
DNA 1: GCTGTAGCTAGTTTTGCTTC
DNA 2: GAAGCAAAACTAGCTACAGC
binding result [1]: binds

Binder: TTTTTTTTTTTTTTTTTTTTTTTTTTTTTTTT (ssDNA) [6-FAM-ss32 (32dT)]
Kd [4]: < 1 nM
